# Data: the RNAGym collection of RNA variant scans (doi:10.1073/pnas.2313332121)
# Fewer inactive variants are shown than the library holds.
# B1: TPR 5TU (parent)
# chain: GGAUCUUCUCGAUCUAACAAAAAAGACAAAUCUGCCACAAAGCUUGAGAGCAUCUUCGGAUGCAGAGGCGGCAGCCUUCGGUGGCGCGAUAGCGCCAACGUUCUCAACUAUGACACGCAAAACGCGUGCUCCGUUGAAUGGAGUUUAUCAUG
# Variants of: B1
# Assay: polymerase ribozyme fitness, log enrichment relative to wild type (log ratio); higher = more active; in vitro selection for triplet polymerase activity
# Procedure, shortened: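 Only genotypes with ≥10 input reads and ≥1 read per output were kept after Illumina sequencing of input and output libraries. These libraries were PCR-built, transcribed mutants of each subunit of a heterodimeric triplet polymerase ribozyme, each put through one triplicate in vitro selection round with frozen incubation at −7 °C, gel excision of extended constructs, streptavidin-bead capture and RT-PCR. Fitness is a logarithmic ratio of genotype enrichment to wild-type enrichment, from inverse-variance-weighted replicate averages, with the logarithm in base 2.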
row,Variant,polymerase ribozyme fitness (log ratio)
1,GGAUCUUCUCGAUCUAACAAAAAAGACAAAUCUGCCACAAAGCUUGAGAGCAUCUUCGGAUGCAGAGGCGGCAGCCUUCGGUGGCGUGAUAGCGCCAACGUUCUCAACUGUUACACGCAAAACGCGUGCUCCGUUGAAUGGAGUUUAUCAUG [C87U A110G G112U],≤ -4.2
2,GGAUCUUCUCGAUCUAACAAAAAAGACAAAUCUGCCACAAAGCUUGAGAGCAUCUUCGGAUGCAGAGGCGGCAGCCUUCGGUGGCGUGAUAGCGCCAACGUUCUCAACUAUGACACGCAAAACGCGUGCUCCGUUGCAUGGAGUUUAUCAUG [C87U A137C],-3.99
3,GGAUCUUCUCGAUCUAACAAAAAAGACAAAUCUGCCACAAAGCUUGAGAGCAUCUUCGGAUGCAGAGGCGGCAGCCUUCGGUGGCGUGAUAGCGCCAACGUUCUCAACUAUGACACGCAAAACGCGUGCUCCGUUGGAUGGAGUUUAUCAUG [C87U A137G],-1.81
4,GGAUCUUCUCGAUCUAACAAAAAAGACAAAUCUGCCACAAAGCUUGAGAGCAUCUUCGGAUGCAGAGGCGGCAGCCUUCGGUGGCGGGAUAGCGCCAACGUUCUCAACUAUGACACGCAAAACGCGUGCUCCGUUGAAUGGGGUUUAUCAUG [C87G A142G],-4.14
5,GGAUCUUCUCGAUCUAACAAAAAAGACAAAUCUGCCACAAAGCUUGAGAGCAUCUUCGGAUGCAGAGGCGGCAGCCUUCGGUGGCGUGAUAGCGCCAACGUUCUCAACUAUGACACGCAAAGCGCGUGCUCCGUUGAAUGGAGUUUAUCAUG [C87U A122G],-1.83
6,GGAUCUUCUCGAUCUAACAAAAAAGACAAAUCUGCCACAAAGCUUGAGAGCAUCUUCGGAUGCAGAGGCGGCAGCCUUCGGUGGCGUGAUAGCGCCAACGUUCUCAACUAUGACACGCAAAACGCGUGCUCCGUUGGAUGGAGUUUACCAUG [C87U A137G U148C],-3.87
7,GGAUCUUCUCGAUCUAACAAAAAAGACAAAUCUGCCACAAAGCUUGAGAGCAUCUUCGGAUGCAGAGGCGGCAGCCUUCGGUGGCGUGAUAGCGCCAGCGUUCUCGACUAUGACACGCAAAACGCGUGCUCCGUUGAAUGGAGUUUAUCAUG [C87U A98G A106G],-1.08
8,GGAUCUUCUCGAUCUAACAAAAAAGACAAAUCUGCCACAAAGCUUGAGAGCAUCUUCGGAUGCAGAGGCGGCAGCCUUCGGUGGCGGGAUAGCGCCAACGUUCUUAACUAUGACACGCAAAACGCGUGCUCCGUUGCAUGGAGUUUAUCUUG [C87G C105U A137C A150U],≤ -4.2
9,GGAUCUUCUCGAUCUAACAAAAAAGACAAAUCUGCCACAAAGCUUGAGAGCAUCUUCGGAUGCAGAGGCGGCAGCCUUCGGUGGCGUGAUAGCGCCAACGUUCUCAUCUAUGACACGCAAAACGCGUGCUCCGUUGAAUGGAGUUUAUCAUG [C87U A107U],-3.34
10,GGAUCUUCUCGAUCUAACAAAAAAGACAAAUCUGCCACAAAGCUUGAGAGCAUCUUCGGAUGCAGAGGCGGCAGCCUUCGGUGGCGGGAUAGCGCCAACGUUCUCAACUAUGACACGCAAAACGCGUGCUCCGAUGAAUGGAGUUUAUCAUG [C87G U134A],≤ -4.2
11,GGAUCUUCUCGAUCUAACAAAAAAGACAAAUCUGCCACAAAGCUUGAGAGCAUCUUCGGAUGCAGAGGCGGCAGCCUUCGGUGGCGUGAUAGCGCCAACGUUCUCAACUAUGACUCGCAAAACGCGUGCUCCGUUGAAUUGAGUUUAUCAUG [C87U A115U G140U],-4.19
12,GGAUCUUCUCGAUCUAACAAAAAAGACAAAUCUGCCACAAAGCUUGAGAGCAUCUUCGGAUGCAGAGGCGGCAGCCUUCGGUGGCGUGAUGGCGCCAACGUUCUGAACUAUGACACGCAAAACGCGUGCUCCGUUGAAUGGAGUUUAUCAUG [C87U A91G C105G],-4.02
13,GGAUCUUCUCGAUCUAACAAAAAAGACAAAUCUGCCACAAAGCUUGAGAGCAUCUUCGGAUGCAGAGGCGGCAGCCUUCGGUGGCGGGAUAGCGCCAACGUUCUUAACUAUGACACGCAAAACGCGCGCUCCGUUGAAUGGAGUUUAUCAUG [C87G C105U U127C],-4.1
14,GGAUCUUCUCGAUCUAACAAAAAAGACAAAUCUGCCACAAAGCUUGAGAGCAUCUUCGGAUGCAGAGGCGGCAGCCUUCGGUGGCGGGAUAGCGCCAACGUUCUCAACUAUGACACGCAAAACGCGUGCUCCGUUGAAUGCAGUUUAUCAUG [C87G G141C],-3.99
15,GGAUCUUCUCGAUCUAACAAAAAAGACAAAUCUGCCACAAAGCUUGAGAGCAUCUUCGGAUGCAGAGGCGGCAGCCUUCGGUGGCGGGAUAGCGCCAACGUUCUCAACUAGGACACGCAAAACGCGUGCUCCGUUGAAUGGAGUUUAUCAUG [C87G U111G],≤ -4.2
16,GGAUCUUCUCGAUCUAACAAAAAAGACAAAUCUGCCACAAAGCUUGAGAGCAUCUUCGGAUGCAGAGGCGGCAGCCUUCGGUGGCGUGAUAGCGCCAACGUUCUCAACUAUGACUCGCAAAACGCGUGCUCCGUUGAAUGGAGUUUAUCAUG [C87U A115U],-1.73
17,GGAUCUUCUCGAUCUAACAAAAAAGACAAAUCUGCCACAAAGCUUGAGAGCAUCUUCGGAUGCAGAGGCGGCAGCCUUCGGUGGCGUGAUUGCGCCAGCGUUCUCAACUAUGACACGCAAAACGCGUGCUCCGUUGAGUGGAGUUUAUCAUA [C87U A91U A98G A138G G152A],≤ -4.2
18,GGAUCUUCUCGAUCUAACAAAAAAGACAAAUCUGCCACAAAGCUUGAGAGCAUCUUCGGAUGCAGAGGCGGCAGCCUUCGGUGGCGGGAUACCGCCAACGUUCUCAACUAUGACACGCAAAACGCAUGCUCCGUUGAAUGGAGUUUAUCAUG [C87G G92C G126A],0.48
19,GGAUCUUCUCGAUCUAACAAAAAAGACAAAUCUGCCACAAAGCUUGAGAGCAUCUUCGGAUGCAGAGGCGGCAGCCUUCGGUGGCGGGAUAGCGCCAACGUUCUCAACUAUUACACGCAAAACGCGUGCUCCGUUGAAUGGAGUUUAUCAUG [C87G G112U],≤ -4.2

row,Variant,polymerase ribozyme fitness (log ratio)
1,GGAUCUUCUCGAUCUAACAAAAAAGACAAAUCUGCCACAAAGCUUGAGAGCAUCUUCGGAUGCAGAGGCGGCAGCCUUCGGUGGCGUGAUAGCGCCAACGUUCUCAACUAUGACACGCAAUACGCGUGCUCCGUUGAAUGGAGUUUAUCAUG [C87U A121U],-0.38
2,GGAUCUUCUCGAUCUAACAAAAAAGACAAAUCUGCCACAAAGCUUGAGAGCAUCUUCGGAUGCAGAGGCGGCAGCCUUCGGUGGCGGGAUAGCGCCAACGUUCUCAACUCUGACACGCAAAACGCGUGCUCCGUUGAAUGGAGUUGAUAAUG [C87G A110C U146G C149A],≤ -4.2
3,GGAUCUUCUCGAUCUAACAAAAAAGACAAAUCUGCCACAAAGCUUGAGAGCAUCUUCGGAUGCAGAGGCGGCAGCCUUCGGUGGCGGGAUAGCGCCAACGUUCUCAACUAUGACACGCAAAACGCGUGCUCCGUUGAAAGGAGUUUAUCAUG [C87G U139A],≤ -4.2
4,GGAUCUUCUCGAUCUAACAAAAAAGACAAAUCUGCCACAAAGCUUGAGAGCAUCUUCGGAUGCAGAGGCGGCAGCCUUCGGUGGCGGGAUAGCGCCAACGUUCUCAACUAUGACACGCAAAACGCGUGCUCCGUUGAAUCGAGUUUAUCAUG [C87G G140C],≤ -4.2
5,GGAUCUUCUCGAUCUAACAAAAAAGACAAAUCUGCCACAAAGCUUGAGAGCAUCUUCGGAUGCAGAGGCGGCAGCCUUCGGUGGCGGGAUAGCGCCAACGUUCUCAACUAUGACACGCAAAACGCGUGCUCCGUUGAAUGGAGUUUAUCAUU [C87G G152U],-3.57
6,GGAUCUUCUCGAUCUAACAAAAAAGACAAAUCUGCCACAAAGCUUGAGAGCAUCUUCGGAUGCAGAGGCGGCAGCCUUCGGUGGCGGGAUAGCGCCAACGUUCUGAACUAUGACACGCAAAACGCGUGCUCCGUUGAAUGGAGUUUAUCAUG [C87G C105G],≤ -4.2
7,GGAUCUUCUCGAUCUAACAAAAAAGACAAAUCUGCCACAAAGCUUGAGAGCAUCUUCGGAUGCAGAGGCGGCAGCCUUCGGUGGCGGGAUAGCCCCAACGUUCUCAACUAUGACACGCAAAACGCGUGCUCGGUUGAAUGGAGUUUAUCAUG [C87G G94C C132G],≤ -4.2
8,GGAUCUUCUCGAUCUAACAAAAAAGACAAAUCUGCCACAAAGCUUGAGAGCAUCUUCGGAUGCAGAGGCGGCAGCCUUCGGUGGCGUGAUAGCGCCAACGUUCUCAACUAUGACACGCAGCACGCGUGCUCCGUUGAAUGGAGUUUUCCAUG [C87U A120G A121C A147U U148C],-2.38
9,GGAUCUUCUCGAUCUAACAAAAAAGACAAAUCUGCCACAAAGCUUGAGAGCAUCUUCGGAUGCAGAGGCGGCAGCCUUCGGUGGCGGGAUAGCGCCAACGUUCUCAACUAUGACAUGCAAAACGCGUGCUCCGUUGAAUGGAGUUUAUCAUG [C87G C116U],-3.77
10,GGAUCUUCUCGAUCUAACAAAAAAGACAAAUCUGCCACAAAGCUUGAGAGCAUCUUCGGAUGCAGAGGCGGCAGCCUUCGGUGGCGUGAUAGCGCCUACGUUCUCAACUAUGACACGCAAAACGCGUGCUCCGUUGAAUGGAGUUUAUCAUG [C87U A97U],-2.25
11,GGAUCUUCUCGAUCUAACAAAAAAGACAAAUCUGCCACAAAGCUUGAGAGCAUCUUCGGAUGCAGAGGCGGCAGCCUUCGGUGGCGGGAUACCGCCAACGUUCUCAACUAUGACACGCAAAACGUGGGCUCCGUGGAAUGCAGUUUAUCAUG [C87G G92C C125U U127G U135G G141C],≤ -4.2
12,GGAUCUUCUCGAUCUAACAAAAAAGACAAAUCUGCCACAAAGCUUGAGAGCAUCUUCGGAUGCAGAGGCGGCAGCCUUCGGUGGCGUGAUAGCGCCAACGUUCUCGACUAUGACACGCAAAACGCGUGCUCCGUUGAACGGAGUUUAUCAUG [C87U A106G U139C],-3.59
13,GGAUCUUCUCGAUCUAACAAAAAAGACAAAUCUGCCACAAAGCUUGAGAGCAUCUUCGGAUGCAGAGGCGGCAGCCUUCGGUGGCGGGAUAGCGCCAACGUUCGCAACUAUGACACGCAAAACGCGUGCUCCGUUGAAUGGAGUUUAUCAUG [C87G U104G],≤ -4.2
14,GGAUCUUCUCGAUCUAACAAAAAAGACAAAUCUGCCACAAAGCUUGAGAGCAUCUUCGGAUGCAGAGGCGGCAGCCUUCGGUGGCGGGAUAGCGCCAACGUUCUCAACUAUGACACGCAAAACGCGUGCUCCGUUGAAUGGAGUUUAUUAUG [C87G C149U],≤ -4.2
15,GGAUCUUCUCGAUCUAACAAAAAAGACAAAUCUGCCACAAAGCUUGAGAGCAUCUUCGGAUGCAGAGGCGGCAGCCUUCGGUGGCGUGAUAGCGCCAACGUUCUCAACUAUGACACGCAGAACGCGUGCUCCGUUGAAUGGAGUUUAUCAUG [C87U A120G],-1.85
16,GGAUCUUCUCGAUCUAACAAAAAAGACAAAUCUGCCACAAAGCUUGAGAGCAUCUUCGGAUGCAGAGGCGGCAGCCUUCGGUGGCGUGAUAGCGCCAGCGUUCUCAACUAUGACACGCAAAACGCGUGCUCCGUUGAAUGGAGUUUAUCAUG [C87U A98G],-1.67
17,GGAUCUUCUCGAUCUAACAAAAAAGACAAAUCUGCCACAAAGCUUGAGAGCAUCUUCGGAUGCAGAGGCGGCAGCCUUCGGUGGCGUGAUAGCGCCACCGUUCUCAACUAUGACACGCAAAACGCGUGCUCCGUUGAAUGGAGUUUAUCAUG [C87U A98C],-1.07
18,GGAUCUUCUCGAUCUAACAAAAAAGACAAAUCUGCCACAAAGCUUGAGAGCAUCUUCGGAUGCAGAGGCGGCAGCCUUCGGUGGCGUGGUAGCGCCAACGUUCUCAACUAUGACACGCAAAACGCGUGCUCCGUUGAAUGGAGUUUAUCAUG [C87U A89G],-3.41
19,GGAUCUUCUCGAUCUAACAAAAAAGACAAAUCUGCCACAAAGCUUGAGAGCAUCUUCGGAUGCAGAGGCGGCAGCCUUCGGUGGCGUGAUAGCGCCAACGUUCUCGACUAUGACACGCAAAACGCGUGCUCCGUUGAAUGGAGUUUAUCAUG [C87U A106G],-0.549
